Results reported in article PMC10349104.
Values joined by “and” are separate entries in the source; they are usually repeats but may differ in a detail not shown here. Identical values can stand only once.

Columns and labels:
EVA-4 = EVA-4 (UniProt P0C8E9); test: not stated; Kd of EVA-4 for human chemokines, three readings (source data of Supplementary Fig. 7); method and conditions not told for EVA-4
[1] = target: EVA-A(DN) (Amblyomma americanum); test: SPR
[2] = target: EVA-A(C8) (A. americanum); test: SPR
[3] = target: EVA-A(21-102) (A. americanum); test: SPR
[4] = target: EVA-A(Y44A) (Amblyomma americanum); test: SPR
[5] = target: EVA-A(DC) (Amblyomma americanum); test: SPR
[6] = target: EVA-A(Y44A) (A. americanum); test: SPR
[7] = target: EVA-A(L39P) (A. americanum); test: SPR
[8] = target: EVA-A(L39P) (Amblyomma americanum); test: SPR
[9] = target: EVA-A(1-98) (A. americanum); test: SPR
[10] = target: EVA-A(C8) (Amblyomma americanum); test: SPR

Chain of CCL3 (P10147 24-92): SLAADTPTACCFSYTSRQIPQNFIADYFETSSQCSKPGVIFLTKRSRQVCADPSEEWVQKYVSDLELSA
Chain of CCL24 (O00175 27-119): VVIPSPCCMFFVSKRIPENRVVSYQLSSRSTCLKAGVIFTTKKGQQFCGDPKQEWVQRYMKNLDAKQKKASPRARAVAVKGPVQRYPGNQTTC
Chain of CCL13, Q99616 17-98 (ligand; other documents disagree on this pair) (Q99616 17-98): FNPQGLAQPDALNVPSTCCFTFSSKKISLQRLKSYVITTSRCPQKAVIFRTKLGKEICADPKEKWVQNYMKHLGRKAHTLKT
Chain of CCL4 (P13236 24-92): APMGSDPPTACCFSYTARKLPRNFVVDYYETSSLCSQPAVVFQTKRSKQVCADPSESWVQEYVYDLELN
Chain of CCL18 (P55774 21-89): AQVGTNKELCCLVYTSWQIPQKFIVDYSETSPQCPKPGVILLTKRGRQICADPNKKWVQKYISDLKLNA

With “CCL13, Q99616 17-98 (ligand; other documents disagree on this pair)” the Kd (EVA-4) was 258 nM and 234 nM and 267 nM.
For “CCL16 (from UniProt O15467 24-120) (ligand)”, the Kd [1] was 0.223 nM and 0.225 nM and 0.22 nM, the koff [1] was 0.000191 s⁻¹ and 0.000182 s⁻¹ and 0.000181 s⁻¹ and the kon [1] was 858000 M⁻¹ s⁻¹ and 809000 M⁻¹ s⁻¹ and 826000 M⁻¹ s⁻¹. The Kd [2] was 1.9 nM, the koff [2] was 0.00075 s⁻¹ and the kon [2] was 396000 M⁻¹ s⁻¹. The Kd [3] was 0.22 nM, the koff [3] was 0.00019 s⁻¹ and the kon [3] was 831000 M⁻¹ s⁻¹. For the same substance, the Kd [4] was 0.181 nM and 0.268 nM and 0.148 nM, the koff [4] was 0.0001 s⁻¹ and 0.000143 s⁻¹ and 0.000134 s⁻¹ and the kon [4] was 552000 M⁻¹ s⁻¹ and 534000 M⁻¹ s⁻¹ and 906000 M⁻¹ s⁻¹. For the same substance, the Kd [5] was 0.000499 nM and 0.00352 nM and 0.00269 nM, the kon [5] was 256000 M⁻¹ s⁻¹ and 253000 M⁻¹ s⁻¹ and 265000 M⁻¹ s⁻¹ and the Kd [6] was 0.2 nM. It also gave a koff [6] of 0.00013 s⁻¹, a kon [6] of 664000 M⁻¹ s⁻¹ and a Kd [7] of 0.17 nM. The koff [7] was 0.00016 s⁻¹, the kon [7] was 1.18e+06 M⁻¹ s⁻¹ and the Kd [8] was 0.188 nM and 0.138 nM. The koff [8] was 0.000226 s⁻¹ and 0.000159 s⁻¹, the kon [8] was 1.2e+06 M⁻¹ s⁻¹ and 1.15e+06 M⁻¹ s⁻¹ and the Kd [9] was under 0.1 nM. The koff [9] was under 0.0001 s⁻¹, the kon [9] was 258000 M⁻¹ s⁻¹ and the Kd [10] was 1.95 nM and 1.84 nM. The koff [10] was 0.000666 s⁻¹ and 0.000831 s⁻¹, the kon [10] was 341000 M⁻¹ s⁻¹ and 451000 M⁻¹ s⁻¹ and the Kd (EVA-4) was 2.31 nM and 4.95 nM and 5 nM.
In the case of CCL23 (ligand), the Kd [1] is reported as 0.168 nM and 0.972 nM and 0.384 nM, the kon [1] is reported as 53100 M⁻¹ s⁻¹ and 56200 M⁻¹ s⁻¹ and 152000 M⁻¹ s⁻¹ and the Kd [4] is reported as 15.2 nM and 26.4 nM and 14.7 nM. For the same substance, the koff [4] was 0.00168 s⁻¹ and 0.00185 s⁻¹ and 0.00176 s⁻¹, the kon [4] was 111000 M⁻¹ s⁻¹ and 70100 M⁻¹ s⁻¹ and 120000 M⁻¹ s⁻¹ and the Kd [5] was 0.105 nM and 0.44 nM and 0.794 nM. The kon [5] was 144000 M⁻¹ s⁻¹ and 85600 M⁻¹ s⁻¹ and 201000 M⁻¹ s⁻¹, the Kd [8] was 1.15 nM and 0.794 nM and 1.49 nM and the koff [8] was 0.000123 s⁻¹ and 0.00016 s⁻¹ and 0.000168 s⁻¹. The kon [8] was 107000 M⁻¹ s⁻¹ and 201000 M⁻¹ s⁻¹ and 113000 M⁻¹ s⁻¹, the Kd [10] was 13 nM and 34.4 nM and 13.6 nM and the koff [10] was 0.00116 s⁻¹ and 0.00157 s⁻¹ and 0.0012 s⁻¹. For the same substance, the kon [10] was 89700 M⁻¹ s⁻¹ and 45800 M⁻¹ s⁻¹ and 87600 M⁻¹ s⁻¹ and the Kd (EVA-4) was 7.43 nM and 7.41 nM and 7.39 nM.
“CCL18 (from UniProt P55774 21-89) (ligand)” was tested, and the Kd [1] was 0.000563 nM and 0.000228 nM and 0.000552 nM, the koff [1] was 1.04e-06 s⁻¹ and 4.52e-07 s⁻¹ and 5.08e-07 s⁻¹ and the kon [1] was 1.86e+06 M⁻¹ s⁻¹ and 1.98e+06 M⁻¹ s⁻¹ and 921000 M⁻¹ s⁻¹. For the same substance, the Kd [2] was under 0.1 nM, the koff [2] was under 0.0001 s⁻¹ and the kon [2] was 837000 M⁻¹ s⁻¹. For the same substance, the Kd [3] was under 0.1 nM, the koff [3] was under 0.0001 s⁻¹ and the kon [3] was 1.59e+06 M⁻¹ s⁻¹. The Kd [4] was 0.0553 nM and 0.0303 nM and 0.0163 nM, the koff [4] was 7.08e-05 s⁻¹ and 5.3e-05 s⁻¹ and 3.33e-05 s⁻¹ and the kon [4] was 1.28e+06 M⁻¹ s⁻¹ and 1.75e+06 M⁻¹ s⁻¹ and 2.05e+06 M⁻¹ s⁻¹. The Kd [5] was 0.00073 nM and 0.00413 nM and 0.00277 nM, the kon [5] was 496000 M⁻¹ s⁻¹ and 427000 M⁻¹ s⁻¹ and 406000 M⁻¹ s⁻¹ and the Kd [6] was under 0.1 nM. It also gave a koff [6] of under 0.0001 s⁻¹, a kon [6] of 1.69e+06 M⁻¹ s⁻¹ and a Kd [7] of under 0.1 nM. For the same substance, the koff [7] was under 0.0001 s⁻¹, the kon [7] was 3.74e+06 M⁻¹ s⁻¹ and the Kd [8] was 0.00439 nM and 0.00871 nM and 0.0273 nM. For the same substance, the kon [8] was 3.31e+06 M⁻¹ s⁻¹ and 3.54e+06 M⁻¹ s⁻¹ and 4.37e+06 M⁻¹ s⁻¹, the Kd [9] was under 0.1 nM and the koff [9] was under 0.0001 s⁻¹. For the same substance, the kon [9] was 443000 M⁻¹ s⁻¹, the Kd [10] was 0.0591 nM and 0.0302 nM and 0.0473 nM and the koff [10] was 5.57e-05 s⁻¹ and 2.29e-05 s⁻¹ and 3.83e-05 s⁻¹. The kon [10] was 943000 M⁻¹ s⁻¹ and 758000 M⁻¹ s⁻¹ and 810000 M⁻¹ s⁻¹.
“CCL3 (from UniProt P10147 24-92) (ligand)” was tested, and the Kd [1] was 2.89 nM and 3.24 nM and 3.57 nM, the koff [1] was 0.00144 s⁻¹ and 0.00146 s⁻¹ and 0.00142 s⁻¹ and the kon [1] was 498000 M⁻¹ s⁻¹ and 452000 M⁻¹ s⁻¹ and 397000 M⁻¹ s⁻¹. The Kd [2] was 40.3 nM, the koff [2] was 0.0464 s⁻¹ and the kon [2] was 1.08e+06 M⁻¹ s⁻¹. The Kd [3] was 3.23 nM, the koff [3] was 0.00144 s⁻¹ and the kon [3] was 449000 M⁻¹ s⁻¹. The Kd [4] was 1.2 nM and 0.464 nM, the koff [4] was 0.000428 s⁻¹ and 0.000445 s⁻¹ and 0.000452 s⁻¹ and the kon [4] was 357000 M⁻¹ s⁻¹ and 369000 M⁻¹ s⁻¹ and 973000 M⁻¹ s⁻¹. The Kd [5] was 1.67 nM and 1.95 nM and 1.68 nM, the koff [5] was 0.000578 s⁻¹ and 0.000636 s⁻¹ and 0.00061 s⁻¹ and the kon [5] was 345000 M⁻¹ s⁻¹ and 326000 M⁻¹ s⁻¹ and 363000 M⁻¹ s⁻¹. For the same substance, the Kd [6] was 0.95 nM, the koff [6] was 0.00044 s⁻¹ and the kon [6] was 566000 M⁻¹ s⁻¹. It also gave a Kd [7] of 0.32 nM, a koff [7] of 0.0004 s⁻¹ and a kon [7] of 1.22e+06 M⁻¹ s⁻¹. For the same substance, the Kd [8] was 0.356 nM and 0.205 nM and 0.394 nM, the koff [8] was 0.000296 s⁻¹ and 0.000365 s⁻¹ and 0.000413 s⁻¹ and the kon [8] was 831000 M⁻¹ s⁻¹ and 1.78e+06 M⁻¹ s⁻¹ and 1.05e+06 M⁻¹ s⁻¹. The Kd [9] was 1.77 nM, the koff [9] was 0.00058 s⁻¹ and the kon [9] was 345000 M⁻¹ s⁻¹. For the same substance, the Kd [10] was 36.6 nM and 43.3 nM and 41.1 nM.
For “CCL4 (from UniProt P13236 24-92) (ligand)”, the Kd [1] was 4.26 nM and 4.21 nM and 6.38 nM, the koff [1] was 0.00229 s⁻¹ and 0.00217 s⁻¹ and 0.00209 s⁻¹ and the kon [1] was 538000 M⁻¹ s⁻¹ and 516000 M⁻¹ s⁻¹ and 328000 M⁻¹ s⁻¹. For the same substance, the Kd [2] was 71.3 nM, the koff [2] was 0.0215 s⁻¹ and the kon [2] was 293000 M⁻¹ s⁻¹. It also gave a Kd [3] of 4.95 nM, a koff [3] of 0.00218 s⁻¹ and a kon [3] of 461000 M⁻¹ s⁻¹. For the same substance, the Kd [4] was 0.753 nM and 0.7 nM and 0.513 nM, the koff [4] was 0.000169 s⁻¹ and 0.000191 s⁻¹ and 0.000236 s⁻¹ and the kon [4] was 224000 M⁻¹ s⁻¹ and 273000 M⁻¹ s⁻¹ and 460000 M⁻¹ s⁻¹. For the same substance, the Kd [5] was 4.06 nM and 17.6 nM and 4.03 nM, the koff [5] was 0.000873 s⁻¹ and 0.000943 s⁻¹ and 0.00091 s⁻¹ and the Kd [6] was 0.66 nM. It also gave a koff [6] of 0.0002 s⁻¹, a kon [6] of 319000 M⁻¹ s⁻¹ and a Kd [7] of 0.3 nM. For the same substance, the koff [7] was 0.00023 s⁻¹, the kon [7] was 805000 M⁻¹ s⁻¹ and the Kd [8] was 0.291 nM and 0.278 nM and 0.333 nM. The koff [8] was 0.000211 s⁻¹ and 0.000223 s⁻¹ and 0.000297 s⁻¹, the kon [8] was 724000 M⁻¹ s⁻¹ and 801000 M⁻¹ s⁻¹ and 890000 M⁻¹ s⁻¹ and the Kd [9] was 8.56 nM. The koff [9] was 0.00087 s⁻¹, the kon [9] was 165000 M⁻¹ s⁻¹ and the Kd [10] was 70.8 nM and 65.2 nM and 78.1 nM. For the same substance, the koff [10] was 0.0133 s⁻¹ and 0.0132 s⁻¹ and 0.0382 s⁻¹ and the kon [10] was 188000 M⁻¹ s⁻¹ and 202000 M⁻¹ s⁻¹ and 489000 M⁻¹ s⁻¹.
In the case of “CCL24 (from UniProt O00175 27-119) (ligand)”, the Kd [1] is reported as 19.3 nM and 20.8 nM and 19.7 nM, the koff [1] is reported as 0.000922 s⁻¹ and 0.00125 s⁻¹ and 0.000564 s⁻¹ and the kon [1] is reported as 47700 M⁻¹ s⁻¹ and 60300 M⁻¹ s⁻¹ and 28700 M⁻¹ s⁻¹. For the same substance, the Kd [2] was 447 nM, the koff [2] was 0.00869 s⁻¹ and the kon [2] was 18000 M⁻¹ s⁻¹. For the same substance, the Kd [3] was 19.9 nM, the koff [3] was 0.00091 s⁻¹ and the kon [3] was 46000 M⁻¹ s⁻¹. The Kd [4] was 46.6 nM and 88.7 nM and 70.7 nM, the koff [4] was 0.00131 s⁻¹ and 0.0022 s⁻¹ and 0.00184 s⁻¹ and the kon [4] was 28200 M⁻¹ s⁻¹ and 24800 M⁻¹ s⁻¹ and 26000 M⁻¹ s⁻¹. The Kd [5] was 23.6 nM and 30.9 nM and 29.7 nM, the koff [5] was 0.00111 s⁻¹ and 0.000885 s⁻¹ and 0.000951 s⁻¹ and the kon [5] was 47000 M⁻¹ s⁻¹ and 28600 M⁻¹ s⁻¹ and 32100 M⁻¹ s⁻¹. For the same substance, the Kd [6] was 68.6 nM, the koff [6] was 0.00179 s⁻¹ and the kon [6] was 26000 M⁻¹ s⁻¹. It also gave a Kd [7] of 9.58 nM, a koff [7] of 0.00121 s⁻¹ and a kon [7] of 111000 M⁻¹ s⁻¹. For the same substance, the Kd [8] was 9.33 nM and 9.02 nM and 10.4 nM, the koff [8] was 0.000856 s⁻¹ and 0.0013 s⁻¹ and 0.00101 s⁻¹ and the kon [8] was 91800 M⁻¹ s⁻¹ and 144000 M⁻¹ s⁻¹ and 96500 M⁻¹ s⁻¹. For the same substance, the Kd [9] was 28.1 nM, the koff [9] was 0.00111 s⁻¹ and the kon [9] was 36000 M⁻¹ s⁻¹. The Kd [10] was 697 nM and 394 nM and 252 nM and the kon [10] was 23800 M⁻¹ s⁻¹ and 14800 M⁻¹ s⁻¹ and 14400 M⁻¹ s⁻¹.
